For test [1], the target named is T1, human GITR, membrane bound (on activated human T cells and on 3A9-hGITR cells) (human, UniProt Q9Y5U5 26-241).
T1 construct: whole, on cells; the cell is named under assay; also called huGITR; TNFRSF18
T1 sequence (looked up): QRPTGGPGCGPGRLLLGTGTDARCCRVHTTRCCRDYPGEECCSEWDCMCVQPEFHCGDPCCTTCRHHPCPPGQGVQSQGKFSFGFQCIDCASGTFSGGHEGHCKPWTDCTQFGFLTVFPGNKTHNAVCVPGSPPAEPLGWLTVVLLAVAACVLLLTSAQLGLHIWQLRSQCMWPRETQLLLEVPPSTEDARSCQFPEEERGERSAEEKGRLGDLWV
Nature of the test: FACS binding to 3A9-hGITR transfectant, Geo-MFI (PE); EC50 table beside the curves; unit from the axis. (Flow cytometry measures light scatter and fluorescence of single cells or particles in a stream.)

In test [2] the target is T1, human GITR, membrane bound (on …). The description is as above. This is another data set of the same source.

Residue numbers refer to the chain shown, from its start. In names and notes the source's numbering stands. Where two headings read alike, the source gives them in different places.

B1: Non mutated 28F3 (control of the VH CDR3 mutant panel) (antibody, V domains shown)
VH: QVQLVESGGGVVQPGRSLRLSCAASGFTFSSYGMHWVRQAPGKGLEWVAVIWYEGSNKYYADSVKGRFTISRDNSKNTLYLQMNSLRAEDTAVYYCARGGSMVRGDYYYGMDVWGQGTTVTVSS
VL: AIQLTQSPSSLSASVGDRVTITCRASQGISSALAWYQQKPGKAPKLLIYDASSLESGVPSRFSGSGSGTDFTLTISSLQPEDFATYYCQQFNSYPYTFGQGTKLEIK
notes: also called H6
For B1, it took 0.334 nM to reach a half-maximal effect in test [1] (EC50).

B2: 28F3 VH CDR3 mutant M98I, D106E (antibody, V domains shown)
VH: B1 VH with M102I, D106E
VL: B1 VL
notes: also called C5; M98I/D160E
As for B2, the EC50 (as a rule, the concentration that produces a half-maximal response) in test [1] turned out to be 0.349 nM.

B3: 28F3 VH CDR3 mutant M98A, M111L (antibody, V domains shown)
VH: B1 VH with M102A, M111L
VL: B1 VL
notes: also called G1
Take B3: a half-maximal response in test [2] (EC50) required 187 nM.

B4: 28F3 VH CDR3 mutant M98A, D106E, M111F (antibody, V domains shown)
VH: B1 VH with M102A, D106E, M111F
VL: B1 VL
notes: also called F4
For the molecule B4, the EC50 in test [1] amounted to 19.1 nM.

B5: 28F3 VH CDR3 mutant M98Y, M111F (antibody, V domains shown)
VH: B1 VH with M102Y, M111F
VL: B1 VL
notes: also called H2
Turning to B5, the concentration for a half-maximal effect (EC50) in test [2] is 246 nM. This counts as sub-micromolar.

B6: 28F3 VH CDR3 mutant M98A (antibody, V domains shown)
VH: B1 VH with M102A
VL: B1 VL
notes: also called F6
With B6, in test [1], the EC50 came out at 1.5 nM.

B7: 28F3 VH CDR3 mutant M98S (antibody, V domains shown)
VH: B1 VH with M102S
VL: B1 VL
notes: also called E6
As for B7, the EC50 in test [1] is 3.51 nM.

B8: 28F3 VH CDR3 mutant M98V, D106E (antibody, V domains shown)
VH: B1 VH with M102V, D106E
VL: B1 VL
notes: also called H4
Turning to B8, a half-maximal effect in test [1] (EC50) was put at 0.58 nM. This EC50 lies about 6.1-fold lower than the previous one.

B9: 28F3 VH CDR3 mutant M98Q, M111L (antibody, V domains shown)
VH: B1 VH with M102Q, M111L
VL: B1 VL
notes: also called E1
Take B9: the EC50 in test [2] worked out at 21.7 nM. This lies in the double-digit nanomolar range.

B10: 28F3 VH CDR3 mutant M98I, D106E, M111L (antibody, V domains shown)
VH: B1 VH with M102I, D106E, M111L
VL: B1 VL
notes: also called D3
With B10, the EC50 in test [2] amounted to 1.07 nM.

B11: 28F3 VH CDR3 mutant M98L, M111F (antibody, V domains shown)
VH: B1 VH with M102L, M111F
VL: B1 VL
notes: also called C2
The molecule B11 yielded an EC50 in test [2] of 1.38 nM.

B12: 28F3 VH CDR3 mutant M98Q, M111F (antibody, V domains shown)
VH: B1 VH with M102Q, M111F
VL: B1 VL
notes: also called E2
As to B12, a half-maximal response in test [2] (EC50) required 16.6 nM.

B13: 28F3 VH CDR3 mutant M98L, D106E (antibody, V domains shown)
VH: B1 VH with M102L, D106E
VL: B1 VL
notes: also called B5
In test [1], B13 displayed an EC50 of 0.311 nM.

B14: 28F3 VH CDR3 mutant M98Y, M111L (antibody, V domains shown)
VH: B1 VH with M102Y, M111L
VL: B1 VL
notes: also called H1
In turn, B14 gave an EC50 in test [2] of 620 nM.

B15: 28F3 VH CDR3 mutant M98F, M111L (antibody, V domains shown)
VH: B1 VH with M102F, M111L
VL: B1 VL
notes: also called B1
As for B15, the midpoint of the response in test [2], the EC50, lay at 51.8 nM. This EC50 is about 12-fold lower than that of the molecule before.

B16: 28F3 VH CDR3 mutant M98Q, D106E, M111L (antibody, V domains shown)
VH: B1 VH with M102Q, D106E, M111L
VL: B1 VL
notes: also called E3
As to B16, it took 20.4 nM to reach a half-maximal effect in test [2] (EC50).

B17: 28F3 VH CDR3 mutant M98V (antibody, V domains shown)
VH: B1 VH with M102V
VL: B1 VL
notes: also called H5
B17: the EC50 in test [1] was found to be 0.34 nM.

B18: 28F3 VH CDR3 mutant M98L, D106E, M111F (antibody, V domains shown)
VH: B1 VH with M102L, D106E, M111F
VL: B1 VL
notes: also called C4
In test [1], B18 showed a concentration giving a half-maximal response (EC50) of 0.638 nM.

B19: 28F3 VH CDR3 mutant M98L, D106E, M111L (antibody, V domains shown)
VH: B1 VH with M102L, D106E, M111L
VL: B1 VL
notes: also called C3
With B19, in test [2], the midpoint of the response, the EC50, lay at 1.22 nM. That is a single-digit nanomolar value.

B20: 28F3 VH CDR3 mutant M98I (antibody, V domains shown)
VH: B1 VH with M102I
VL: B1 VL
notes: also called C6
On to B20, for which the concentration for a half-maximal effect (EC50) in test [1] worked out at 1.42 nM.

B21: 28F3 VH CDR3 mutant M98L (antibody, V domains shown)
VH: B1 VH with M102L
VL: B1 VL
notes: also called B6
Take B21: the midpoint of the response in test [1], the EC50, lay at 0.757 nM.

B22: 28F3 VH CDR3 mutant M98F (antibody, V domains shown)
VH: B1 VH with M102F
VL: B1 VL
notes: also called A6
B22 returned an EC50 in test [1] of 0.797 nM. This EC50 and that of the molecule before are within 1.5-fold of each other.

B23: 28F3 VH CDR3 mutant M98Q, D106E, M111F (antibody, V domains shown)
VH: B1 VH with M102Q, D106E, M111F
VL: B1 VL
notes: also called D4
As to B23, the midpoint of the response in test [1], the EC50, lay at 3.33 nM.

B24: 28F3 VH CDR3 mutant M98Y, D106E, M111L (antibody, V domains shown)
VH: B1 VH with M102Y, D106E, M111L
VL: B1 VL
notes: also called H3
With B24, the EC50 in test [2] is 183 nM.

B25: 28F3 VH CDR3 mutant M98S, D106E (antibody, V domains shown)
VH: B1 VH with M102S, D106E
VL: B1 VL
notes: also called E5
B25: in test [1], the 50% effective concentration (EC50) came to 2.29 nM. In other words, the single-digit nanomolar range.

B26: 28F3 VH CDR3 mutant M98V, M111L (antibody, V domains shown)
VH: B1 VH with M102V, M111L
VL: B1 VL
notes: also called A1
B26: in test [2], the response was half-maximal at 3.53 nM (EC50).

B27: 28F3 VH CDR3 mutant M98F, D106E (antibody, V domains shown)
VH: B1 VH with M102F, D106E
VL: B1 VL
notes: also called A5
B27: it took 0.683 nM to reach a half-maximal effect in test [1] (EC50). In other words, the sub-nanomolar range.

B28: 28F3 VH CDR3 mutant M98S, D106E, M111L (antibody, V domains shown)
VH: B1 VH with M102S, D106E, M111L
VL: B1 VL
Molecule B28 had a half-maximal effective concentration (EC50) in test [2] of about 1250 nM.

B29: 28F3 VH CDR3 mutant M98S, M111L (antibody, V domains shown)
VH: B1 VH with M102S, M111L
VL: B1 VL
notes: also called F1
Consider B29, for which the EC50 in test [2] amounted to 60.3 nM.

B30: 28F3 VH CDR3 mutant M98Q (antibody, V domains shown)
VH: B1 VH with M102Q
VL: B1 VL
notes: also called D6
B30 gave a half-maximal effective concentration (EC50) in test [1] of 1.44 nM.

B31: 28F3 VH CDR3 mutant M98I, M111F (antibody, V domains shown)
VH: B1 VH with M102I, M111F
VL: B1 VL
notes: also called D2
The molecule B31 came in with an EC50 in test [2] of 1.33 nM.

B32: 28F3 VH CDR3 mutant M98A, M111F (antibody, V domains shown)
VH: B1 VH with M102A, M111F
VL: B1 VL
notes: also called G2
Take B32: in test [2], the EC50 was determined as 171 nM.

B33: 28F3 VH CDR3 mutant M98F, D106E, M111L (antibody, V domains shown)
VH: B1 VH with M102F, D106E, M111L
VL: B1 VL
notes: also called B3
Take B33: a half-maximal effect in test [2] (EC50) was put at 417 nM.

B34: 28F3 VH CDR3 mutant M98A, D106E (antibody, V domains shown)
VH: B1 VH with M102A, D106E
VL: B1 VL
notes: also called F5
B34 displayed a half-maximal effective concentration (EC50) in test [1] of 0.401 nM.

B35: 28F3 VH CDR3 mutant M98V, D106E, M111L (antibody, V domains shown)
VH: B1 VH with M102V, D106E, M111L
VL: B1 VL
notes: also called A3
In test [2], B35 had a 50% effective concentration (EC50) of 2.87 nM.

B36: 28F3 VH CDR3 mutant M98S, M111F (antibody, V domains shown)
VH: B1 VH with M102S, M111F
VL: B1 VL
notes: also called F2
As to B36, in test [2], the EC50 worked out at 246 nM.

B37: 28F3 VH CDR3 mutant M98Q, D106E (antibody, V domains shown)
VH: B1 VH with M102Q, D106E
VL: B1 VL
notes: also called D5
In test [1], B37 showed an EC50 of 0.968 nM.

B38: 28F3 VH CDR3 mutant M98V, M111F (antibody, V domains shown)
VH: B1 VH with M102V, M111F
VL: B1 VL
notes: also called A2
For the molecule B38, it took 3.7 nM to reach a half-maximal effect in test [2] (EC50).

B39: 28F3 VH CDR3 mutant M98F, D106E, M111F (antibody, V domains shown)
VH: B1 VH with M102F, D106E, M111F
VL: B1 VL
notes: also called B4
Turning to B39, the concentration for a half-maximal effect (EC50) in test [1] stood at 54 nM. This lies in the double-digit nanomolar range.

B40: 28F3 VH CDR3 mutant M98L, M111L (antibody, V domains shown)
VH: B1 VH with M102L, M111L
VL: B1 VL
notes: also called C1
In the case of B40, the EC50 in test [2] came to 0.674 nM.

B41: 28F3 VH CDR3 mutant M98I, M111L (antibody, V domains shown)
VH: B1 VH with M102I, M111L
VL: B1 VL
notes: also called D1
B41 gave an EC50 in test [2] of 1.03 nM.

B42: 28F3 VH CDR3 mutant M98A, D106E, M111L (antibody, V domains shown)
VH: B1 VH with M102A, D106E, M111L
VL: B1 VL
notes: also called G3
With B42, the midpoint of the response in test [2], the EC50, lay at 62 nM. This EC50 lies about 60-fold higher than the previous one.

For the origin of these results see patent publication US20170145104A1 (Bristol-Myers Squibb, published 2017).
